According to the RNAGym collection of RNA variant scans (doi:10.7554/elife.80360):

B1: Twister Ribozyme (parent)
chain: AACACUGCCAAUGCCGGUCCCAAGCCCGGAUAAAAGUGGAGGGGGCGG

Variants of: B1
Experiment: self-cleavage, relative activity (ratio to wild type); higher = more cleavage; co-transcriptional

Variant	self-cleavage
AACACUGCCAAUGCCAGUCCCAAGCCCGGAGAAAAGUGGAGGGGGCGG [G16A U31G]	0.996
AACACUGCCAAUGCUGGUCCCAAGCCCGGAUAAAAGUGGAGGGGGCAG [C15U G47A]	0.84
AACACUGCCAAUGCUGGUCCCAAGCCCGGAUAAAAGUGGAGGGGGCUG [C15U G47U]	0.8
AACACUGCCAAUGCUGGUCCCAAGCCCGGAAAAAAGUGGAGGGGGCGG [C15U U31A]	0.785
AACACUGCCAAUGCCCGUCUCAAGCCCGGAUAAAAGUGGAGGGGGCGG [G16C C20U]	0.489
AACACUGCCAAUGCCCGUCCCAAGCCAGGAUAAAAGUGGAGGGGGCGG [G16C C27A]	0.684
AACACUGCCAAUGCCAGUCCCAAGCCCGGAUAAAAGUGGAGGGCGCGG [G16A G44C]	0.871
AACACUGCCAAUGCUGGUCCCAAGCCCGGAUAAAAGGGGAGGGGGCGG [C15U U37G]	0.568
AACACUGCCAAUGCUGGUCCCAAGCCCGGAUAAAAGCGGAGGGGGCGG [C15U U37C]	0.295
AACACUGCCAAUGCUGGUCCCAAGCCCGGAUAAAAGAGGAGGGGGCGG [C15U U37A]	0.559
AACACUGCCAAUGCCAGUCCCAAGCCCGGAUUAAAGUGGAGGGGGCGG [G16A A32U]	0.919
AACACUGCCAAUGCCAGUCCCAAGCCCGGAUGAAAGUGGAGGGGGCGG [G16A A32G]	0.888
AACACUGCCAAUGCUGGUCCCAAGUCCGGAUAAAAGUGGAGGGGGCGG [C15U C25U]	0.914
AACACUGCCAAUGCUGGUCCCAAGACCGGAUAAAAGUGGAGGGGGCGG [C15U C25A]	0.178
AACACUGCCAAUGCCAGUCCCAAGCCAGGAUAAAAGUGGAGGGGGCGG [G16A C27A]	0.858
AACACUGCCAAUGCCAGUCCCAAGCCUGGAUAAAAGUGGAGGGGGCGG [G16A C27U]	1.17
AACACUGCCAAUGCCAAUCCCAAGCCCGGAUAAAAGUGGAGGGGGCGG [G16A G17A]	0.281
AACACUGCCAAUGCCACUCCCAAGCCCGGAUAAAAGUGGAGGGGGCGG [G16A G17C]	0.139
AACACUGCCAAUGCCCGUCCCAAGCCCGGCUAAAAGUGGAGGGGGCGG [G16C A30C]	0.363
AACACUGCCAAUGCCAGUCCCAAGCUCGGAUAAAAGUGGAGGGGGCGG [G16A C26U]	0.107
AACACUGCCAAUGCCAGUCCCAAGCACGGAUAAAAGUGGAGGGGGCGG [G16A C26A]	0.437
AACACUGCCAAUGCCAGUCCCAAGCCCGCAUAAAAGUGGAGGGGGCGG [G16A G29C]	0.339

Variant	self-cleavage
AACACUGCCAAUGCCAGUCCCAAGCCCGUAUAAAAGUGGAGGGGGCGG [G16A G29U]	0.663
AACACUGCCAAUGCUGGUCCCAAGCCCGGAUAAAAGUGUAGGGGGCGG [C15U G39U]	0.27
AACACUGCCAAUGCCCGUCCCUAGCCCGGAUAAAAGUGGAGGGGGCGG [G16C A22U]	0.21
AACACUGCCAAUGCCAGUCCCAAGCCCGGAUAAGAGUGGAGGGGGCGG [G16A A34G]	0.574
AACACUGCCAAUGCCAGUCCCAAGCCCGGAUAACAGUGGAGGGGGCGG [G16A A34C]	0.174
AACACUGCCAAUGCCCGUCCCAGGCCCGGAUAAAAGUGGAGGGGGCGG [G16C A23G]	0.092
AACACUGCCAAUGCCCGUCCCAUGCCCGGAUAAAAGUGGAGGGGGCGG [G16C A23U]	0.0704
AACACUGCCAAUGCUGGUCCCAAGCGCGGAUAAAAGUGGAGGGGGCGG [C15U C26G]	0.0693
AACACUGCCAAUGCUGGUCCCAAGCUCGGAUAAAAGUGGAGGGGGCGG [C15U C26U]	0.117
AACACUGCCAAUGCUGCUCCCAAGCCCGGAUAAAAGUGGAGGGGGCGG [C15U G17C]	0.0992
AACACUGCCAAUGCUGGUACCAAGCCCGGAUAAAAGUGGAGGGGGCGG [C15U C19A]	0.228
AACACUGCCAAUGCCAGUCCCAAGCCCUGAUAAAAGUGGAGGGGGCGG [G16A G28U]	0.607
AACACUGCCAAUGCCCGUCCCAAGCCCGGAUAAAUGUGGAGGGGGCGG [G16C A35U]	0.577
AACACUGCCAAUGCCCGUCCCAAGCCCGGAUAAAGGUGGAGGGGGCGG [G16C A35G]	0.483
AACACUGCCAAUGCCAGUCCCAAGACCGGAUAAAAGUGGAGGGGGCGG [G16A C25A]	0.117
AACACUGCCAAUGCCAGUCCCAAGGCCGGAUAAAAGUGGAGGGGGCGG [G16A C25G]	0.298
AACACUGCCAAUGCUGGUCCCAAGCCGGGAUAAAAGUGGAGGGGGCGG [C15U C27G]	0.0731
AACACUGCCAAUGCUGGUCCCAAGCCAGGAUAAAAGUGGAGGGGGCGG [C15U C27A]	0.105
AACACUGCCAAUGCUGGUCCCAAGCCCGGAUAAAACUGGAGGGGGCGG [C15U G36C]	0.204
AACACUGCCAAUGCUGGUCCCAAGCCCGGAUAAACGUGGAGGGGGCGG [C15U A35C]	0.863
AACACUGCCAAUGCCAGUCCCAAGCCCGGAUAAACGUGGAGGGGGCGG [G16A A35C]	0.927
AACACUGCCAAUGCCAGUCCCAAGCCCGGAUAAAGGUGGAGGGGGCGG [G16A A35G]	0.555

Variant	self-cleavage
AACACUGCCAAUGCCAGUCCCAAGCCCGGAUAAAUGUGGAGGGGGCGG [G16A A35U]	1.05
AACACUGCCAAUGCCAGUCCCAAGCCCGGAUAAAAGAGGAGGGGGCGG [G16A U37A]	0.457
AACACUGCCAAUGCCAGUCCCAAGCCCGGAUAAAAGCGGAGGGGGCGG [G16A U37C]	0.335
AACACUGCCAAUGCCAGUCUCAAGCCCGGAUAAAAGUGGAGGGGGCGG [G16A C20U]	0.837
AACACUGCCAAUGCCAGUCACAAGCCCGGAUAAAAGUGGAGGGGGCGG [G16A C20A]	0.12
AACACUGCCAAUGCCCGUCCCAAGCCCGGAUAAUAGUGGAGGGGGCGG [G16C A34U]	0.207
AACACUGCCAAUGCCAGUCCCAAGCCCGGAUAAAAGUGGAGGGGGCCG [G16A G47C]	0.351
AACACUGCCAAUGCCAGUCCCAAGCCCGGAUAAAAGUGGAGGGGGCAG [G16A G47A]	0.702
AACACUGCCAAUGCCCGUGCCAAGCCCGGAUAAAAGUGGAGGGGGCGG [G16C C19G]	0.1
AACACUGCCAAUGCCAGUCCCAAGCCCGGAUAAAAGUCGAGGGGGCGG [G16A G38C]	0.761
AACACUGCCAAUGCCAGUCCCAAGCCCGGAUAAAAGUAGAGGGGGCGG [G16A G38A]	0.867
AACACUGCCAAUGCUGGUCCCAAGCCCGGAUAAAAGUGGAGGCGGCGG [C15U G43C]	0.125
AACACUGCCAAUGCUGGUCCCAAGCCCGGAUAAAAGUGGAGGAGGCGG [C15U G43A]	0.225
AACACUGCCAAUGCUGGUCCCAAGCCCGGAUAAAAGUGGAGGGGGCGC [C15U G48C]	1.07
AACACUGCCAAUGCCAGUCCCAAGCCCGGAUAAAAGUGGAAGGGGCGG [G16A G41A]	0.364
AACACUGCCAAUGCCAGUCCCUAGCCCGGAUAAAAGUGGAGGGGGCGG [G16A A22U]	0.631
AACACUGCCAAUGCCAGUCCCCAGCCCGGAUAAAAGUGGAGGGGGCGG [G16A A22C]	0.941
AACACUGCCAAUGCCAGUCCCGAGCCCGGAUAAAAGUGGAGGGGGCGG [G16A A22G]	0.155
AACACUGCCAAUGCCCGUCCCAAGGCCGGAUAAAAGUGGAGGGGGCGG [G16C C25G]	0.0947
AACACUGCCAAUGCCCGUCCCAAGUCCGGAUAAAAGUGGAGGGGGCGG [G16C C25U]	0.188
AACACUGCCAAUGCUGGUCCAAAGCCCGGAUAAAAGUGGAGGGGGCGG [C15U C21A]	0.138
AACACUGCCAAUGCUGGUCCUAAGCCCGGAUAAAAGUGGAGGGGGCGG [C15U C21U]	0.101

Variant	self-cleavage
AACACUGCCAAUGCCAGUCCCAAGCCCGGCUAAAAGUGGAGGGGGCGG [G16A A30C]	0.91
AACACUGCCAAUGCCAGUCCCAAGCCCGGGUAAAAGUGGAGGGGGCGG [G16A A30G]	0.958
AACACUGCCAAUGCCAGUCCCAAGCCCGGAUAAAAUUGGAGGGGGCGG [G16A G36U]	0.174
AACACUGCCAAUGCCAGUCCCAAGCCCGGAUAAAACUGGAGGGGGCGG [G16A G36C]	0.133
AACACUGCCAAUGCCAGUCCCAAACCCGGAUAAAAGUGGAGGGGGCGG [G16A G24A]	0.0954
AACACUGCCAAUGCCCGUCCCAAGCCCGGAUAAAAGUGGCGGGGGCGG [G16C A40C]	0.0741
AACACUGCCAAUGCCCGUCCCAAGCCCGGAUAAAAGUGGUGGGGGCGG [G16C A40U]	0.114
AACACUGCCAAUGCCAGCCCCAAGCCCGGAUAAAAGUGGAGGGGGCGG [G16A U18C]	0.41
AACACUGCCAAUGCCAGACCCAAGCCCGGAUAAAAGUGGAGGGGGCGG [G16A U18A]	0.482
AACACUGCCAAUGCCAGUCCCAAGCCCGGAUAAAAGUGGAGUGGGCGG [G16A G42U]	0.197
AACACUGCCAAUGCCAGUCCCAAGCCCGGAUAAAAGUGGAGAGGGCGG [G16A G42A]	0.358
AACACUGCCAAUGCUGGUCACAAGCCCGGAUAAAAGUGGAGGGGGCGG [C15U C20A]	0.176
AACACUGCCAAUGCUGGUCGCAAGCCCGGAUAAAAGUGGAGGGGGCGG [C15U C20G]	0.135
AACACUGCCAAUGCCAGUACCAAGCCCGGAUAAAAGUGGAGGGGGCGG [G16A C19A]	0.241
AACACUGCCAAUGCCAGUUCCAAGCCCGGAUAAAAGUGGAGGGGGCGG [G16A C19U]	0.826
AACACUGCCAAUGCCAGUCCCAAGCCCGGAUAAAAGUGGAGGAGGCGG [G16A G43A]	0.261
AACACUGCCAAUGCUGGUCCCAAGCCCGGAUAAAAGUGGAAGGGGCGG [C15U G41A]	0.483
AACACUGCCAAUGCUGGUCCCAAGCCCGGAUAAAAGUGGAUGGGGCGG [C15U G41U]	0.452
AACACUGCCAAUGCUGGUCCCAAGCCCGGAUAAAAGUGGAGGGAGCGG [C15U G44A]	0.935
AACACUGCCAAUGCCAGUCCAAAGCCCGGAUAAAAGUGGAGGGGGCGG [G16A C21A]	0.104
AACACUGCCAAUGCCAGUCCCAAGCCCGGAUAAAAGUGGAGGGGCCGG [G16A G45C]	0.595
AACACUGCCAAUGCCAGUCCCAAGCCCGGAUAAAAGUGGAGGGGUCGG [G16A G45U]	0.858

Variant	self-cleavage
AACACUGCCAAUGCCAGUCCCAAGCCCGGAUAGAAGUGGAGGGGGCGG [G16A A33G]	0.892
AACACUGCCAAUGCCCGUCCCAAGCUCGGAUAAAAGUGGAGGGGGCGG [G16C C26U]	0.171
AACACUGCCAAUGCCCGUCCCAAGCGCGGAUAAAAGUGGAGGGGGCGG [G16C C26G]	0.0968
AACACUGCCAAUGCCAGUCCCAUGCCCGGAUAAAAGUGGAGGGGGCGG [G16A A23U]	0.228
AACACUGCCAAUGCCAGUCCCAAGCCCGGAUAAAAGUGGCGGGGGCGG [G16A A40C]	0.122
AACACUGCCAAUGCCCGUCCAAAGCCCGGAUAAAAGUGGAGGGGGCGG [G16C C21A]	0.0849
AACACUGCCAAUGCCAGUCCCAAGCCCGGAUAAAAGUGGAGGGGGGGG [G16A C46G]	0.813
AACACUGCCAAUGCUGGUCCCAAGCCCGGAUAAAAGUAGAGGGGGCGG [C15U G38A]	0.831
AACACUGCCAAUGCUGGUCCCAAGCCCGGAUAAAAGUUGAGGGGGCGG [C15U G38U]	0.76
AACACUGCCAAUGCUGGUCCCAAUCCCGGAUAAAAGUGGAGGGGGCGG [C15U G24U]	0.122
AACACUGCCAAUGCCCGUCCCAAGCCCGGAUACAAGUGGAGGGGGCGG [G16C A33C]	0.427
AACACUGCCAAUGCCCGUCCCAAGCCCGGAUAUAAGUGGAGGGGGCGG [G16C A33U]	0.359
AACACUGCCAAUGCCAGUCCCAAGCCCGGAUAAAAGUGUAGGGGGCGG [G16A G39U]	0.187
AACACUGCCAAUGCUGGUCCCAAGCCCGGAUAAAAGUGGAGGGGGUGG [C15U C46U]	0.917
AACACUGCCAAUGCUGGUCCCAAGCCCCGAUAAAAGUGGAGGGGGCGG [C15U G28C]	0.988
AACACUGCCAAUGCUGGUCCCAAGCCCGGAUAAAAGUGGGGGGGGCGG [C15U A40G]	0.162
AACACUGCCAAUGCUGGUCCCAAGCCCGGAUAAAAGUGGUGGGGGCGG [C15U A40U]	0.15
AACACUGCCAAUGCUGGUCCCAAGCCCGGAUAAAAGUGGCGGGGGCGG [C15U A40C]	0.148
AACACUGCCAAUGCUGGGCCCAAGCCCGGAUAAAAGUGGAGGGGGCGG [C15U U18G]	0.0578
AACACUGCCAAUGCUGGCCCCAAGCCCGGAUAAAAGUGGAGGGGGCGG [C15U U18C]	0.396
